Measurements: patent US20230128075A1
Positions count from the first letter of the chain named. Values belong to the binder of their own block, whether it stands above or below them.

Target: HSP70 (antigen; source and nucleotide state not stated) (Homo sapiens (Human)) (UniProt P0DMV8)
Test: biosensor, anti-human Fc capture, antigen 100 nM

Chain of HSP70 (antigen; source and nucleotide state not stated) (Homo sapiens (Human)) (P0DMV8 whole entry): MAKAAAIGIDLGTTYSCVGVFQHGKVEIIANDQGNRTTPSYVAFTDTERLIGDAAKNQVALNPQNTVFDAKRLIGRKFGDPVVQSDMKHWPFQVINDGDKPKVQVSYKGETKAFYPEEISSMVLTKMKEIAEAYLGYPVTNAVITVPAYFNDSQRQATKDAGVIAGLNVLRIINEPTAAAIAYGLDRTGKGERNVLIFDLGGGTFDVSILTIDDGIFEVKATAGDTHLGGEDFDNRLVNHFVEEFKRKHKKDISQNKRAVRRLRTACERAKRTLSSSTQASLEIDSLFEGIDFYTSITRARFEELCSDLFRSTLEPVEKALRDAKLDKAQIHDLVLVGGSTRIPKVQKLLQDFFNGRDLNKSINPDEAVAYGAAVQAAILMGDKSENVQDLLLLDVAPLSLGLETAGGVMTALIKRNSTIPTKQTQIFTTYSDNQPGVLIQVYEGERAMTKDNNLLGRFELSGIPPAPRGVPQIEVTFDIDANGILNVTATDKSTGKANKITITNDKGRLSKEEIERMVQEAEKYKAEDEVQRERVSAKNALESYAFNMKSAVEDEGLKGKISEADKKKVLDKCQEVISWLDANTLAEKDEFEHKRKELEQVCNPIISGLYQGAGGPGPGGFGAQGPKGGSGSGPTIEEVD

% Diss: -115%
X = 1495: 0.0133 nM
B1: h77A-1.52 (antibody, V domains shown)
VH: QIQLVQSGVEVKKPGASVKVSCKASGYIFTNYGMNWVRQAPGQGLEWMGWINTYTGEPRYADDFKGRFTFTTDTSTSTAYMELRSLRSDDTAVYFCARYDHRMDYWGQGTLVTVSS
VL: EIVLTQSPDSLAVSLGERATINCKSSQSLLNSGTRKNYLAWYQQKAGQSPKLLIYWTSTRESGVPDRFSGSGSGTDFTLTIDSLQAEDVAVYYCKQSYTLYTFGGGTKVEIK

% Diss: -8.84%
X = 610: 0.0181 nM
B2: h77A-1.80 (antibody, V domains shown)
VH: B1 VH with V9A, I28T, R59K, R102V
VL: B1 VL with A40S, A46P, L53I

% Diss: -37.4%
X = 610: 0.0131 nM
B3: h77A-1.79 (antibody, V domains shown)
VH: B1 VH with V9A, I28T, N31K
VL: B1 VL with A46P, T99N

% Diss: -41.2%
X = 610: 0.0068 nM
B4: h77A-1.54 (antibody, V domains shown)
VH: B1 VH with V9A, I28T, N31K, R59K, A61G
VL: B1 VL
